Laboratory results taken from PMC9482650, “Quantitative fragmentomics allow affinity mapping of interactomes” (Nature Communications, 2022).

How the values were obtained:
Test in all cases: holdup assay
Set-up in all cases: key: below the threshold = too weak to quantify, mostly under pKd 3.1 to 4
Inadl_6, Q8NI35 = biological target: Inadl_6, Q8NI35
PDZRN4_1, Q6ZMN7 = biological target: PDZRN4_1, Q6ZMN7
LRRC7, Q96NW7 = biological target: T1, LRRC7, Q96NW7
T1 sequence (Q96NW7 1440-1537, limits assumed, looked up): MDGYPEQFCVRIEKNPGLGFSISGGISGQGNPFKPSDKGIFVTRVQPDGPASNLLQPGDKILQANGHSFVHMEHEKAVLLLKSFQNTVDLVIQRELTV

CASK, O14936 = biological target: CASK, O14936
Sequence of CASK, O14936 (O14936 487-570): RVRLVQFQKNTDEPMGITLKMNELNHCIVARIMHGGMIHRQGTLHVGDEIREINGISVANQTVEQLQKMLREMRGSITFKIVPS

HTRA2, O43464 = biological target: HTRA2, O43464
Sequence of HTRA2, O43464 (O43464 355-458): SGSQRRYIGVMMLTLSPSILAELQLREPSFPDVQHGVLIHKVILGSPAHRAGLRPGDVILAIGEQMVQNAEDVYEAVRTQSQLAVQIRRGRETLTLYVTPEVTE

FRMPD4, Q14CM0 = biological target: FRMPD4, Q14CM0
Sequence of FRMPD4, Q14CM0 (Q14CM0 67-160): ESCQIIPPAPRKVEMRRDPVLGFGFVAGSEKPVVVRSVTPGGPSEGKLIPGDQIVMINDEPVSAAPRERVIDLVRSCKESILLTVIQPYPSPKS

DLG1_3, Q12959 = biological target: DLG1_3, Q12959
Sequence of DLG1_3, Q12959 (Q12959 457-571): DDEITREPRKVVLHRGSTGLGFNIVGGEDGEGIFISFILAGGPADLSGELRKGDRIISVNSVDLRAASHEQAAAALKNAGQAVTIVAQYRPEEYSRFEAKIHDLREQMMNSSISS

DFNB31_3, Q9P202 = biological target: T2, DFNB31_3, Q9P202
T2 sequence (Q9P202 811-907, limits assumed, looked up): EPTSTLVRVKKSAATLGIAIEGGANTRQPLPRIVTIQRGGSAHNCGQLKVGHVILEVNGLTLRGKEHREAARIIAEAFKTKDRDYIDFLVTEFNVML

PDZD2_2, O15018 = biological target: T3, PDZD2_2, O15018
T3 sequence (O15018 329-429, limits assumed, looked up): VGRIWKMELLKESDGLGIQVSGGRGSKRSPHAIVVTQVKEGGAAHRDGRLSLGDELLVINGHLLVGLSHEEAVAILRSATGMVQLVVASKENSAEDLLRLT

PDLIM1, O00151 = biological target: PDLIM1, O00151
Sequence of PDLIM1, O00151 (O00151 1-87): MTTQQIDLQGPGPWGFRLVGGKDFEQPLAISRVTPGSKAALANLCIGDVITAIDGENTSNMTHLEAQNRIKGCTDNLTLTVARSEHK

TJP1_3, Q07157 = biological target: TJP1_3, Q07157
Sequence of TJP1_3, Q07157 (Q07157 416-512): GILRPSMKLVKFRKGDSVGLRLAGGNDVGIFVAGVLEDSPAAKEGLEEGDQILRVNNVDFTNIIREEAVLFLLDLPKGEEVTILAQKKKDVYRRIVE

MPDZ_10, O75970 = biological target: T4, MPDZ_10, O75970
T4 sequence (O75970 1624-1722, limits assumed, looked up): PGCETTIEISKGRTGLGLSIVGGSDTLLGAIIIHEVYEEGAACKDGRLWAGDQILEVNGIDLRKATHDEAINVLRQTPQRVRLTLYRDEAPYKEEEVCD

NHERF3_3, Q5T2W1 = biological target: T5, NHERF3_3, Q5T2W1
T5 sequence (Q5T2W1 238-333, limits assumed, looked up): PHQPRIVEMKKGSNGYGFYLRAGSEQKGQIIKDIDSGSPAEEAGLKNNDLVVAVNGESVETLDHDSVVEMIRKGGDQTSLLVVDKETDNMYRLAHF

GRIP1_4, Q9Y3R0 = biological target: T6, GRIP1_4, Q9Y3R0
T6 sequence (Q9Y3R0 467-571, limits assumed, looked up): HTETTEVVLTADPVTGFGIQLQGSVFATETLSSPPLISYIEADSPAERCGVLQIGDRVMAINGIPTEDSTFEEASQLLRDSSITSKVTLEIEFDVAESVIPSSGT

Inadl_1, Q8NI35 = biological target: Inadl_1, Q8NI35
Sequence of Inadl_1, Q8NI35 (Q8NI35 113-229): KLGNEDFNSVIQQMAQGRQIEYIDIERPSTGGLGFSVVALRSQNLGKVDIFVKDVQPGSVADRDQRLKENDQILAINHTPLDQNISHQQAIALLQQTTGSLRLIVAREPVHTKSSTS

LIN7B, Q9HAP6 = biological target: T7, LIN7B, Q9HAP6
T7 sequence (Q9HAP6 88-185, limits assumed, looked up): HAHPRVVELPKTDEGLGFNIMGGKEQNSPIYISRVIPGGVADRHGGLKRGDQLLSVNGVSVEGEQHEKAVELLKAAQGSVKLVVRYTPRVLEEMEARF

APBA3_1, O96018 = biological target: T8, APBA3_1, O96018
T8 sequence (O96018 389-490, limits assumed, looked up): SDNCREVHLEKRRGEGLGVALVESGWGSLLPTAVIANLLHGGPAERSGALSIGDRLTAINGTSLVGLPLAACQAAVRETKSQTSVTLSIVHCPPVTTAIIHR

DLG4_2, P78352 = biological target: DLG4_2, P78352
Sequence of DLG4_2, P78352 (P78352 155-259): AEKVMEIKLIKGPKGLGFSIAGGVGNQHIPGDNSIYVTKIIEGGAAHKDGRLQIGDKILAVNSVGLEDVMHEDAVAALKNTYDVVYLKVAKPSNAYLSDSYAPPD

IL16_4, Q14005 = biological target: IL16_4, Q14005
Sequence of IL16_4, Q14005 (Q14005 1229-1329): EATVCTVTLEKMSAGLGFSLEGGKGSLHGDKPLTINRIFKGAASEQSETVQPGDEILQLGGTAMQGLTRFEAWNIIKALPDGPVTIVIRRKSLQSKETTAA

NHERF4_4, Q86UT5 = biological target: NHERF4_4, Q86UT5
Sequence of NHERF4_4, Q86UT5 (Q86UT5 464-550): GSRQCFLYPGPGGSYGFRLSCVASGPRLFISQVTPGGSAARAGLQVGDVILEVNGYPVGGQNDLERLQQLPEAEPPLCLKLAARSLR

MAST2, Q6P0Q8 = biological target: MAST2, Q6P0Q8
Sequence of MAST2, Q6P0Q8 (Q6P0Q8 1099-1202): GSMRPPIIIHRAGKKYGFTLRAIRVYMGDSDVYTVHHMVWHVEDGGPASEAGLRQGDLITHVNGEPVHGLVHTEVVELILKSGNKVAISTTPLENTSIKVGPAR

TIAM2, Q8IVF5 = biological target: T9, TIAM2, Q8IVF5
T9 sequence (Q8IVF5 885-986, limits assumed, looked up): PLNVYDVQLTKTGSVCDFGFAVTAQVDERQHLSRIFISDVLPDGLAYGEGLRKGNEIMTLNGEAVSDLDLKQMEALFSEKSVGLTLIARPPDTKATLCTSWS

APBA1_1, Q02410 = biological target: T10, APBA1_1, Q02410
T10 sequence (Q02410 651-752, limits assumed, looked up): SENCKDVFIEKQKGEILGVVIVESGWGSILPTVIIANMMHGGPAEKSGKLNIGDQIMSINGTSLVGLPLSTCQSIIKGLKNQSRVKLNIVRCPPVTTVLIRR

GRIP2_6, Q9C0E4 = biological target: GRIP2_6, Q9C0E4
Sequence of GRIP2_6, Q9C0E4 (Q9C0E4 648-740): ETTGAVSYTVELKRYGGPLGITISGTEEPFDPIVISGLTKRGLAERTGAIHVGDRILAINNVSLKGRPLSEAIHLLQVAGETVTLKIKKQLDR

GOPC, Q9HD26 = biological target: GOPC, Q9HD26
SIPA1L2, Q9P2F8 = biological target: T11, SIPA1L2, Q9P2F8
T11 sequence (Q9P2F8 945-1036, limits assumed, looked up): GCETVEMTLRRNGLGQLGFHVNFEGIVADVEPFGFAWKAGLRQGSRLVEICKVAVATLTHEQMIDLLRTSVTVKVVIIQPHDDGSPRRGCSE

[1] = plain residues with an end cap or a label only (N-terminal biotin on a linker: ahx)
[2] = plain residues with an end cap or a label only (N-terminal biotin on a linker: ttds)

Sequence of PDZRN4_1, Q6ZMN7 (Q6ZMN7 213-318): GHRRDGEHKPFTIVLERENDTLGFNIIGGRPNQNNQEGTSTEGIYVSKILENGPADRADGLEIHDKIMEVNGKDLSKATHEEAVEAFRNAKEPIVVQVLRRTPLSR
Sequence of Inadl_6, Q8NI35 (Q8NI35 1058-1167): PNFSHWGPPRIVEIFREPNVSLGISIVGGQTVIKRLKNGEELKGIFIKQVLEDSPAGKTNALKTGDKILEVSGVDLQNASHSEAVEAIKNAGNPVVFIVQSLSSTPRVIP

Binder: SAPATLSSRA [PDLIM2, Q96JY6]
- pKd (Inadl_6, Q8NI35; [1]): below the threshold
- pKd (PDZRN4_1, Q6ZMN7; [1]): below the threshold
- pKd (LRRC7, Q96NW7; [1]): below the threshold
- pKd (CASK, O14936; [1]): below the threshold
- pKd (HTRA2, O43464; [1]): below the threshold
- pKd (FRMPD4, Q14CM0; [1]): below the threshold
- pKd (DLG1_3, Q12959; [1]): below the threshold
- pKd (DFNB31_3, Q9P202; [1]): below the threshold
- pKd (PDZD2_2, O15018; [1]): below the threshold
- pKd (PDLIM1, O00151; [1]): below the threshold
- pKd (TJP1_3, Q07157; [1]): below the threshold
- pKd (MPDZ_10, O75970; [1]): 4
- pKd (NHERF3_3, Q5T2W1; [1]): below the threshold
- pKd (GRIP1_4, Q9Y3R0; [1]): below the threshold
- pKd (Inadl_1, Q8NI35; [1]): below the threshold
- pKd (LIN7B, Q9HAP6; [1]): below the threshold
- pKd (APBA3_1, O96018; [1]): below the threshold
- pKd (DLG4_2, P78352; [1]): below the threshold
- pKd (IL16_4, Q14005; [1]): below the threshold
- pKd (NHERF4_4, Q86UT5; [1]): below the threshold
- pKd (MAST2, Q6P0Q8; [1]): below the threshold
- pKd (TIAM2, Q8IVF5; [1]): below the threshold
- pKd (APBA1_1, Q02410; [1]): below the threshold
- pKd (GRIP2_6, Q9C0E4; [1]): below the threshold
- pKd (GOPC, Q9HD26; [1]): below the threshold
- pKd (SIPA1L2, Q9P2F8; [1]): below the threshold

Binder: SGGKRKETLV [NET1, Q7Z628]
- pKd (Inadl_6, Q8NI35; [2]): 3.6
- pKd (PDZRN4_1, Q6ZMN7; [2]): 4.31
- pKd (LRRC7, Q96NW7; [2]): below the threshold
- pKd (CASK, O14936; [2]): below the threshold
- pKd (HTRA2, O43464; [2]): below the threshold
- pKd (FRMPD4, Q14CM0; [2]): 3.65
- pKd (DLG1_3, Q12959; [2]): 4.44
- pKd (DFNB31_3, Q9P202; [2]): below the threshold
- pKd (PDZD2_2, O15018; [2]): 4.25
- pKd (PDLIM1, O00151; [2]): below the threshold
- pKd (TJP1_3, Q07157; [2]): below the threshold
- pKd (MPDZ_10, O75970; [2]): below the threshold
- pKd (NHERF3_3, Q5T2W1; [2]): below the threshold
- pKd (GRIP1_4, Q9Y3R0; [2]): below the threshold
- pKd (Inadl_1, Q8NI35; [2]): below the threshold
- pKd (LIN7B, Q9HAP6; [2]): 3.81
- pKd (APBA3_1, O96018; [2]): below the threshold
- pKd (DLG4_2, P78352; [2]): 5.77
- pKd (IL16_4, Q14005; [2]): below the threshold
- pKd (NHERF4_4, Q86UT5; [2]): below the threshold
- pKd (MAST2, Q6P0Q8; [2]): 4.49
- pKd (TIAM2, Q8IVF5; [2]): below the threshold
- pKd (APBA1_1, Q02410; [2]): below the threshold
- pKd (GRIP2_6, Q9C0E4; [2]): below the threshold
- pKd (GOPC, Q9HD26; [2]): 3.82
- pKd (SIPA1L2, Q9P2F8; [2]): below the threshold

Binder: ADENEQVSAV [RAPGEF6, Q8TEU7]
- pKd (Inadl_6, Q8NI35; [1]): 3.59
- pKd (PDZRN4_1, Q6ZMN7; [1]): below the threshold
- pKd (LRRC7, Q96NW7; [1]): below the threshold
- pKd (CASK, O14936; [1]): below the threshold
- pKd (HTRA2, O43464; [1]): below the threshold
- pKd (FRMPD4, Q14CM0; [1]): below the threshold
- pKd (DLG1_3, Q12959; [1]): below the threshold
- pKd (DFNB31_3, Q9P202; [1]): below the threshold
- pKd (PDZD2_2, O15018; [1]): 5.5
- pKd (PDLIM1, O00151; [1]): below the threshold
- pKd (TJP1_3, Q07157; [1]): below the threshold
- pKd (MPDZ_10, O75970; [1]): below the threshold
- pKd (NHERF3_3, Q5T2W1; [1]): below the threshold
- pKd (GRIP1_4, Q9Y3R0; [1]): below the threshold
- pKd (Inadl_1, Q8NI35; [1]): below the threshold
- pKd (LIN7B, Q9HAP6; [1]): below the threshold
- pKd (APBA3_1, O96018; [1]): below the threshold
- pKd (DLG4_2, P78352; [1]): 4.05
- pKd (IL16_4, Q14005; [1]): below the threshold
- pKd (NHERF4_4, Q86UT5; [1]): below the threshold
- pKd (MAST2, Q6P0Q8; [1]): 4.79
- pKd (TIAM2, Q8IVF5; [1]): below the threshold
- pKd (APBA1_1, Q02410; [1]): below the threshold
- pKd (GRIP2_6, Q9C0E4; [1]): below the threshold
- pKd (GOPC, Q9HD26; [1]): below the threshold
- pKd (SIPA1L2, Q9P2F8; [1]): below the threshold

Binder: FVETQHQTQV [FAT3, Q8TDW7]
- pKd (Inadl_6, Q8NI35; [2]): below the threshold
- pKd (PDZRN4_1, Q6ZMN7; [2]): below the threshold
- pKd (LRRC7, Q96NW7; [2]): below the threshold
- pKd (CASK, O14936; [2]): below the threshold
- pKd (HTRA2, O43464; [2]): below the threshold
- pKd (FRMPD4, Q14CM0; [2]): below the threshold
- pKd (DLG1_3, Q12959; [2]): 3.95
- pKd (DFNB31_3, Q9P202; [2]): below the threshold
- pKd (PDZD2_2, O15018; [2]): 4.35
- pKd (PDLIM1, O00151; [2]): below the threshold
- pKd (TJP1_3, Q07157; [2]): below the threshold
- pKd (MPDZ_10, O75970; [2]): below the threshold
- pKd (NHERF3_3, Q5T2W1; [2]): below the threshold
- pKd (GRIP1_4, Q9Y3R0; [2]): below the threshold
- pKd (Inadl_1, Q8NI35; [2]): below the threshold
- pKd (LIN7B, Q9HAP6; [2]): below the threshold
- pKd (APBA3_1, O96018; [2]): below the threshold
- pKd (DLG4_2, P78352; [2]): 4.57
- pKd (IL16_4, Q14005; [2]): below the threshold
- pKd (NHERF4_4, Q86UT5; [2]): below the threshold
- pKd (MAST2, Q6P0Q8; [2]): 5.39
- pKd (TIAM2, Q8IVF5; [2]): below the threshold
- pKd (APBA1_1, Q02410; [2]): below the threshold
- pKd (GRIP2_6, Q9C0E4; [2]): below the threshold
- pKd (GOPC, Q9HD26; [2]): 3.76
- pKd (SIPA1L2, Q9P2F8; [2]): below the threshold

Binder: SRSRRRETAL [HPV33-E6, P06427]
- pKd (Inadl_6, Q8NI35; [2]): 3.7
- pKd (PDZRN4_1, Q6ZMN7; [2]): 5.21
- pKd (LRRC7, Q96NW7; [2]): 3.68
- pKd (CASK, O14936; [2]): below the threshold
- pKd (HTRA2, O43464; [2]): 3.46
- pKd (FRMPD4, Q14CM0; [2]): 3.87
- pKd (DLG1_3, Q12959; [2]): 4.56
- pKd (DFNB31_3, Q9P202; [2]): below the threshold
- pKd (PDZD2_2, O15018; [2]): below the threshold
- pKd (PDLIM1, O00151; [2]): below the threshold
- pKd (TJP1_3, Q07157; [2]): below the threshold
- pKd (MPDZ_10, O75970; [2]): below the threshold
- pKd (NHERF3_3, Q5T2W1; [2]): below the threshold
- pKd (GRIP1_4, Q9Y3R0; [2]): below the threshold
- pKd (Inadl_1, Q8NI35; [2]): below the threshold
- pKd (LIN7B, Q9HAP6; [2]): 3.72
- pKd (APBA3_1, O96018; [2]): below the threshold
- pKd (DLG4_2, P78352; [2]): 4.77
- pKd (IL16_4, Q14005; [2]): below the threshold
- pKd (NHERF4_4, Q86UT5; [2]): below the threshold
- pKd (MAST2, Q6P0Q8; [2]): 5.37
- pKd (TIAM2, Q8IVF5; [2]): below the threshold
- pKd (APBA1_1, Q02410; [2]): below the threshold
- pKd (GRIP2_6, Q9C0E4; [2]): below the threshold
- pKd (GOPC, Q9HD26; [2]): 3.97
- pKd (SIPA1L2, Q9P2F8; [2]): below the threshold
